# Test results published in paper PMC2119551.
# Biological target: aFGF receptors on the surface of NBT-II cells (rat (endogenous in NBT-II))
# Assay: radioligand binding
substance,measurement,value
Human recombinant acidic FGF (from UniProt P05230 1-155) (ligand),cpm bound (cells preincubated with 100 ng/ml pertussis toxin),11800 cpm
same,cpm bound (cells preincubated with 10 ug/ml cholera toxin),13600 cpm
same,cpm bound (cells preincubated with 100 uM forskolin),14300 cpm
same,cpm bound (untreated cells),12700 cpm
